From IntAct's records for PubMed 32296183

B1: Ceroid-lipofuscinosis neuronal protein 6 (Homo sapiens), Q9NWW5 (parent)
chain: MEATRRRQHLGATGGPGAQLGASFLQARHGSVSADEAARTAPFHLDLWFYFTLQNWVLDFGRPIAMLVFPLEWFPLNKPSVGDYFHMAYNVITPFLLLKLIERSPRTLPRSITYVSIIIFIMGASIHLVGDSVNHRLLFSGYQHHLSVRENPIIKNLKPETLIDSFELLYYYDEYLGHCMWYIPFFLILFMYFSGCFTASKAESLIPGPALLLVAPSGLYYWYLVTEGQIFILFIFTFFAMLALVLHQKRKRLFLDSNGLFLFSSFALTLLLVALWVAWLWNDPVLRKKYPGVIYVPEPWAFYTLHVSSRH
B2: Golgi SNAP receptor complex member 2 (Homo sapiens), O14653 (parent)
chain: MDPLFQQTHKQVHEIQSCMGRLETADKQSVHIVENEIQASIDQIFSRLERLEILSSKEPPNKRQNARLRVDQLKYDVQHLQTALRNFQHRRHAREQQERQREELLSRTFTTNDSDTTIPMDESLQFNSSLQKVHNGMDDLILDGHNILDGLRTQRLTLKGTQKKILDIANMLGLSNTVMRLIEKRAFQDKYFMIGGMLLTCVVMFLVVQYLT
partner: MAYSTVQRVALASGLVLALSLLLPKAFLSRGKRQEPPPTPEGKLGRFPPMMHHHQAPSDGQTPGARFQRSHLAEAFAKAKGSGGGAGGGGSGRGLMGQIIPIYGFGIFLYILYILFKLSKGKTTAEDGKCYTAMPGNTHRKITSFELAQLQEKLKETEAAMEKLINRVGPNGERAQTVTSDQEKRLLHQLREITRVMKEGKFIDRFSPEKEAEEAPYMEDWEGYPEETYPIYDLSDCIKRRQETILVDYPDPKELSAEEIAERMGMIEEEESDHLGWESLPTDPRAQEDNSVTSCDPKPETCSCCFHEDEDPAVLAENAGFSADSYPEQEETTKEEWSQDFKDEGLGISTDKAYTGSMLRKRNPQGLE
B3: Catenin alpha-3 (Homo sapiens), Q9UI47-2 (parent)
chain: MSAETPITLNIDPQDLQVQTFTVEKLLEPLIIQVTTLVNCPQNPSSRKKGRSKRASVLLASVEEATWNLLDKGEKIAQEATVLKDELTASLEEVRKESEALKVSAERFTDDPCFLPKREAVVQAARALLAAVTRLLILADMIDVMCLLQHVSAFQRTFESLKNVANKSDLQKTYQKLGKELENLDYLAFKRQQDLKSPNQRDEIAGARASLKENSPLLHSICSACLEHSDVASLKASKDTVCEEIQNALNVISNASQGIQNMTTPPEPQAATLGSALDELENLIVLNPLTVTEEEIRPSLEKRLEAIISGAALLADSSCTRDLHRERIIAECNAIRQALQDLLSEYMNNAGKKERSNTLNIALDNMCKKTRDLRRQLRKAIIDHVSDSFLDTTVPLLVLIEAAKNGREKEIKEYAAIFHEHTSRLVEVANLACSMSTNEDGIKIVKIAANHLETLCPQIINAALALAARPKSQAVKNTMEMYKRTWENHIHVLTEAVDDITSIDDFLAVSGMFLFF
partner: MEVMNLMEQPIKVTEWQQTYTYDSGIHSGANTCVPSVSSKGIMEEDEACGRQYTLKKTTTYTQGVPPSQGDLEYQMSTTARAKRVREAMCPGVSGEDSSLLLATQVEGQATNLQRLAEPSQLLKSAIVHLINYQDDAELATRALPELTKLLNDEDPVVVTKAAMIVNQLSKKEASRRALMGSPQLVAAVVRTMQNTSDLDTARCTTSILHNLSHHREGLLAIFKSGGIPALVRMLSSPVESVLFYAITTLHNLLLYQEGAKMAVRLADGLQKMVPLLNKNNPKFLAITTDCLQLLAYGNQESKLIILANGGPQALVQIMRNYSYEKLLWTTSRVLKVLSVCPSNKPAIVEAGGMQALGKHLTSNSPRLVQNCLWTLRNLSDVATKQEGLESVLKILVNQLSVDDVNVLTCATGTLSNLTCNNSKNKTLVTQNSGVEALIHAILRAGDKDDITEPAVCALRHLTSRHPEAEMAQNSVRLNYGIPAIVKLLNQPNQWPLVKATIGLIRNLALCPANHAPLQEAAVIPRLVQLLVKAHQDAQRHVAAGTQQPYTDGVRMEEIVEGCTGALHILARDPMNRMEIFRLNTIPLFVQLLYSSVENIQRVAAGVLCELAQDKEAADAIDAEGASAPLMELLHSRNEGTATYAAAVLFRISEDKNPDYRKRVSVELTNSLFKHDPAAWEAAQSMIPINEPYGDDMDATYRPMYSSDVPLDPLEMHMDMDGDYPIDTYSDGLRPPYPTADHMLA
B4: Golgi SNAP receptor complex member 2 (Homo sapiens), O14653 (parent)
chain: B2 chain
partner: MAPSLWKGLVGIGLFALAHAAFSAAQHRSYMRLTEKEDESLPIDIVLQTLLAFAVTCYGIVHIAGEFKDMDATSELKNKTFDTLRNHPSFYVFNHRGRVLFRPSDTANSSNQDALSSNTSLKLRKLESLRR
B5: Golgi SNAP receptor complex member 2 (Homo sapiens), O14653 (parent)
chain: B2 chain
partner: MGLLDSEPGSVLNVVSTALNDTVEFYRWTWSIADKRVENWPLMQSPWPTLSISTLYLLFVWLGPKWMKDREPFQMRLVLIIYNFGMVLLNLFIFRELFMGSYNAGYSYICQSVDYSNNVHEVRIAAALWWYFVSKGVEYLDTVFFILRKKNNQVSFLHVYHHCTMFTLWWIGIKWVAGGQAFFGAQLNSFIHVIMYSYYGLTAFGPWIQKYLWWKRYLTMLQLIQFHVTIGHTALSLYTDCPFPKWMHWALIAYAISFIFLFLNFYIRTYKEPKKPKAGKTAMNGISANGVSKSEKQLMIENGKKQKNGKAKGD
B6: Catenin alpha-3 (Homo sapiens), Q9UI47-2 (parent)
chain: B3 chain
partner: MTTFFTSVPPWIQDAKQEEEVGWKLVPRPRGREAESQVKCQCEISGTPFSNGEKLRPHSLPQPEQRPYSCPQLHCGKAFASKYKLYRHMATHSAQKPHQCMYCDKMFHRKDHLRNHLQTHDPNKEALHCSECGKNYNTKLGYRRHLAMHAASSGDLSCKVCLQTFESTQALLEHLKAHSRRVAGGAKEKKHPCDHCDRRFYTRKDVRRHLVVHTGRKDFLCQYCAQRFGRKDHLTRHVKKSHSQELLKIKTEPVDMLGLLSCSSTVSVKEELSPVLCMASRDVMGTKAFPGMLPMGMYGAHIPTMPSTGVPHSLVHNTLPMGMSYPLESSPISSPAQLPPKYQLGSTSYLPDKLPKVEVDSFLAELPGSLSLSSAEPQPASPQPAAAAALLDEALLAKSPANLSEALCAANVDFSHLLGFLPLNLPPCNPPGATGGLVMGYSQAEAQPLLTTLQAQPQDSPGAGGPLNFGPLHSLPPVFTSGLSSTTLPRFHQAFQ
B7: Golgi SNAP receptor complex member 2 (Homo sapiens), O14653 (parent)
chain: B2 chain

Variants of: B1
Conditions: with stx1a_human STX1A
Target sequence in this assay (Q16623 whole entry, looked up): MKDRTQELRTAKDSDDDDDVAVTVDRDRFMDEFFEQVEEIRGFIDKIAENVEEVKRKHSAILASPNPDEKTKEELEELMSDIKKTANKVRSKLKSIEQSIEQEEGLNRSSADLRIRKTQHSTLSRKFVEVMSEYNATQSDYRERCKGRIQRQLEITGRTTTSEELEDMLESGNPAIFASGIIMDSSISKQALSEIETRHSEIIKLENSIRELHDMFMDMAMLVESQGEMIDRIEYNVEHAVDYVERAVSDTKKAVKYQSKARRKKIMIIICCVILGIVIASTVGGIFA
For L47F, the “effect of a mutation on the interaction” value was “with no effect”. In the case of R6T, the “effect of a mutation on the interaction” value is reported as “with no effect”.

Variants of: B1
Conditions: with ar13b_human ARL13B
Target sequence in this assay (Q3SXY8 whole entry): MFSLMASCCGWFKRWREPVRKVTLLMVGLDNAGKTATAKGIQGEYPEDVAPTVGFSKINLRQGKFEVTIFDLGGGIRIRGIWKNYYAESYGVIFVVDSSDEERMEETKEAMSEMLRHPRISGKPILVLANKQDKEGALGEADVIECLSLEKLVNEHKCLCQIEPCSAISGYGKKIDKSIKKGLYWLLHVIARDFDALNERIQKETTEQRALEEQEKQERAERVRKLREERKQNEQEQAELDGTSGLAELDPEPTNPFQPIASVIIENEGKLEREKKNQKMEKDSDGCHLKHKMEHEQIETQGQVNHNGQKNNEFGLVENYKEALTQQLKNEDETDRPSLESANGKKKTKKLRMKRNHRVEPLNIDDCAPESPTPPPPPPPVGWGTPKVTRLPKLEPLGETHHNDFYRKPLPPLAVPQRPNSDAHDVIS
In the case of L47F, the “effect of a mutation on the interaction” value is reported as “with no effect”. For R6T, the “effect of a mutation on the interaction” value was “with no effect”.

Variants of: B1
Conditions: with cd79a_human CD79A
L47F was tested, and the “effect of a mutation on the interaction” value was “with no effect”. For R6T, the “effect of a mutation on the interaction” value was “with no effect”.

Variants of: B1
Conditions: with ki2l3_human KIR2DL3, P43628
ki2l3_human KIR2DL3, P43628, sequence (P43628 whole entry): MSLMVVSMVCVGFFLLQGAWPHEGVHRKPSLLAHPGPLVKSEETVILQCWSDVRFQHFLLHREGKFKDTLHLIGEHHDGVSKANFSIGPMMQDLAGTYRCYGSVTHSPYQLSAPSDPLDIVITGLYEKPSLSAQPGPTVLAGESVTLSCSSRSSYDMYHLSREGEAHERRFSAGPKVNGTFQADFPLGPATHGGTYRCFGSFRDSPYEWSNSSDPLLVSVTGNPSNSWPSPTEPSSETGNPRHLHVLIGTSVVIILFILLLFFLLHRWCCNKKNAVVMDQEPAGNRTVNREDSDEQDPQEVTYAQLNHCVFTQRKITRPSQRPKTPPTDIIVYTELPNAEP
For L47F, the “effect of a mutation on the interaction” value was “with no effect”. In the case of R6T, the “effect of a mutation on the interaction” value is reported as “with no effect”.

Variants of: B1
Conditions: with lrc25_human LRRC25, Q8N386
lrc25_human LRRC25, Q8N386, sequence (Q8N386 whole entry): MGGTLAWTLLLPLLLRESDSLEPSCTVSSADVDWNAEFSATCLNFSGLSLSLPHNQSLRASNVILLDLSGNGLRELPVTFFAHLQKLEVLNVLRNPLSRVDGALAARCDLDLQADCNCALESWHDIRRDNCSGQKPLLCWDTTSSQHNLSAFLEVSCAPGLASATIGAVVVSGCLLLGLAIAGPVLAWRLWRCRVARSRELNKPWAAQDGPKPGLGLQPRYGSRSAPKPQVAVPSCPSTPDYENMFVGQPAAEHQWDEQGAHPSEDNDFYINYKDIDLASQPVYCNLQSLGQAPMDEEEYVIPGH
L47F was tested, and the “effect of a mutation on the interaction” value was “with no effect”. For R6T, the “effect of a mutation on the interaction” value was “with no effect”.

Variants of: B1
Conditions: with tm139_human TMEM139, Q8IV31
tm139_human TMEM139, Q8IV31, sequence (Q8IV31 whole entry): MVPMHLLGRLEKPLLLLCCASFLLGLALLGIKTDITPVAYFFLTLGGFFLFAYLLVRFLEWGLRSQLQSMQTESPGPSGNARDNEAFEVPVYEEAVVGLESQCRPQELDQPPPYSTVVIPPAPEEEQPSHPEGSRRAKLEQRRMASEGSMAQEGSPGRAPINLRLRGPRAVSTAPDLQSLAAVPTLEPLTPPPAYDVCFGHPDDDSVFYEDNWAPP
In the case of L47F, the “effect of a mutation on the interaction” value is reported as “with no effect”. In the case of R6T, the “effect of a mutation on the interaction” value is reported as “with no effect”.

Variants of: B1
Conditions: with cxa8_human GJA8, P48165
cxa8_human GJA8, P48165, sequence (P48165 whole entry): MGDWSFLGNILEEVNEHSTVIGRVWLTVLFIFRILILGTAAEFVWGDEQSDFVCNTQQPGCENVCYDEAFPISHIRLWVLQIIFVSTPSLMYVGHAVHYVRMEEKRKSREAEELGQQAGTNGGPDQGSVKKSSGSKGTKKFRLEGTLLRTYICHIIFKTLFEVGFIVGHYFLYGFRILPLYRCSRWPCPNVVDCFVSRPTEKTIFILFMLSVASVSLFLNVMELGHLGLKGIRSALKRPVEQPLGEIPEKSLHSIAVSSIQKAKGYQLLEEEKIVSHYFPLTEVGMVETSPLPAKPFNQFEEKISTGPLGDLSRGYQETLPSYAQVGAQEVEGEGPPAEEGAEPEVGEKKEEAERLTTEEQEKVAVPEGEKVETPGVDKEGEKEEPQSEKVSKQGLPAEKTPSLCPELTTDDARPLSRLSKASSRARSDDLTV
In the case of R6T, the “effect of a mutation on the interaction” value is reported as “with no effect”.

Variants of: B2
Conditions: with RIC3, Q7Z5B4-5
With G144W the “effect of a mutation on the interaction” value was “disrupting interaction strength”.

Variants of: B3
Conditions: with plak_human JUP
In the case of V94D, the “effect of a mutation on the interaction” value is reported as “disrupting interaction strength”.

Variants of: B4
Conditions: with emc5_human MMGT1, Q8N4V1
With G144W the “effect of a mutation on the interaction” value was “with no effect”.

Variants of: B5
Conditions: with elov4_human ELOVL4, Q9GZR5
In the case of G144W, the “effect of a mutation on the interaction” value is reported as “with no effect”.

Variants of: B6
Conditions: with plal2_human PLAGL2, Q9UPG8
In the case of V94D, the “effect of a mutation on the interaction” value is reported as “disrupting interaction strength”.

Variants of: B7
Conditions: with stx4_human STX4, Q12846
stx4_human STX4, Q12846, sequence (Q12846 whole entry): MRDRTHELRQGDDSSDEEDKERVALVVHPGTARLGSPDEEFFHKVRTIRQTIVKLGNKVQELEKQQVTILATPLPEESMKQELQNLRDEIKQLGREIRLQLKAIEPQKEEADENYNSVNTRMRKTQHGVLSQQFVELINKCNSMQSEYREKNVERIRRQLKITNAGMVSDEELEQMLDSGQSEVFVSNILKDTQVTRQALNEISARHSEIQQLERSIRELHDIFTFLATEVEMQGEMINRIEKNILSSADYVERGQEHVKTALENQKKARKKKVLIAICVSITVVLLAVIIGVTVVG
In the case of G144W, the “effect of a mutation on the interaction” value is reported as “with no effect”.

Variants of: B7
Conditions: with stx1a_human STX1A
Target sequence in this assay (Q16623 whole entry, looked up): as the sequence (Q16623 whole entry, looked up) above
G144W was tested, and the “effect of a mutation on the interaction” value was “with no effect”.

Variants of: B7
Conditions: with retr3_human RETREG3, Q86VR2
retr3_human RETREG3, Q86VR2, sequence (Q86VR2 whole entry): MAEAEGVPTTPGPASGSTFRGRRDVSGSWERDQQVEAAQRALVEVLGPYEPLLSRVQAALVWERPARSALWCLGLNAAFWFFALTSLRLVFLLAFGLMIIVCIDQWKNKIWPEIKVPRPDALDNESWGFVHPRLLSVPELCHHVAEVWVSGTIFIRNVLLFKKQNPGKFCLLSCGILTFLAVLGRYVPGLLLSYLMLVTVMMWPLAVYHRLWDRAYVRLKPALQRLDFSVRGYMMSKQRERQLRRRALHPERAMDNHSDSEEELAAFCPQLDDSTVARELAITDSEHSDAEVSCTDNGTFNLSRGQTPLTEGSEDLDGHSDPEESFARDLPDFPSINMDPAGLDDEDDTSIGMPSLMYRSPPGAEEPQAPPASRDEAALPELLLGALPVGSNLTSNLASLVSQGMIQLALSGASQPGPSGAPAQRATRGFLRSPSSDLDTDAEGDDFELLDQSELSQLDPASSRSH
In the case of G144W, the “effect of a mutation on the interaction” value is reported as “with no effect”.

Variants of: B7
Conditions: with tm205_human TMEM205, Q6UW68
tm205_human TMEM205, Q6UW68, sequence (Q6UW68 whole entry): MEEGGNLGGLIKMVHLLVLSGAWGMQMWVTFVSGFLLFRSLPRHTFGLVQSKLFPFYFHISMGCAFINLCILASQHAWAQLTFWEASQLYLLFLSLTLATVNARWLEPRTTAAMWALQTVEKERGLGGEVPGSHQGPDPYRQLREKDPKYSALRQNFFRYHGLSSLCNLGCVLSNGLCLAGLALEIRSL
With G144W the “effect of a mutation on the interaction” value was “with no effect”.

Variants of: B7
Conditions: with ebp_human EBP
In the case of G144W, the “effect of a mutation on the interaction” value is reported as “with no effect”.

Variants of: B7
Conditions: with gp152_human GPR152, Q8TDT2
gp152_human GPR152, Q8TDT2, sequence (Q8TDT2 whole entry): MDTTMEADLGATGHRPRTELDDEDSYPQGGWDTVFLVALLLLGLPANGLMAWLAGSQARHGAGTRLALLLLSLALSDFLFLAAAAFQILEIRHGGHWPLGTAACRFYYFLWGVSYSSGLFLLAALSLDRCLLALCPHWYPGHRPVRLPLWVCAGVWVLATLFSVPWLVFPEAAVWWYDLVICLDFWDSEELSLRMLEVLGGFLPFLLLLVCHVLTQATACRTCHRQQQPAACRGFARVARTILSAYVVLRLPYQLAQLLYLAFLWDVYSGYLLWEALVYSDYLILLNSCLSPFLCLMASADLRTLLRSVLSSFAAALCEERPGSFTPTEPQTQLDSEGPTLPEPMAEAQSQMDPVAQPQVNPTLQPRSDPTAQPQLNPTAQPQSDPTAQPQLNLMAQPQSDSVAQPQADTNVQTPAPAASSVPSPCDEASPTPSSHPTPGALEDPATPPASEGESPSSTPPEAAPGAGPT
With G144W the “effect of a mutation on the interaction” value was “with no effect”.

Variants of: B7
Conditions: with ar13b_human ARL13B
Target sequence in this assay (Q3SXY8 whole entry): as the sequence (Q3SXY8 whole entry) above
With G144W the “effect of a mutation on the interaction” value was “disrupting interaction strength”.
